Measurements taken from publication PMC8270467, “A MYB4-MAN3-Mannose-MNB1 signaling cascade regulates cadmium tolerance in Arabidopsis”.

B1: ProMAN3 P3 probe (dsDNA)
DNA 1: CAAATCATATAGTTTGGTGACTGATTTCAA
DNA 2: TTGAAATCAGTCACCAAACTATATGATTTG
B2: ProMAN3 P2 probe (dsDNA)
DNA 1: AAGATGGGTTTGCTTGGTGAGACCACAAGA
DNA 2: TCTTGTGGTCTCACCAAGCAAACCCATCTT
B3: ProMAN3 P4 probe (dsDNA)
DNA 1: AGTTAGTCAATGAACGGTTTTCAAATAAAG
DNA 2: CTTTATTTGAAAACCGTTCATTGACTAACT
B4: ProMAN3 P1 probe (dsDNA)
DNA 1: GGTTTACAAATCAACAACCACTGAACTTTT
DNA 2: AAAAGTTCAGTGGTTGTTGATTTGTAAACC

Biological target: MYB4-MBP (Arabidopsis thaliana, UniProt Q9SZP1 1-282)
Sequence (Q9SZP1 whole entry): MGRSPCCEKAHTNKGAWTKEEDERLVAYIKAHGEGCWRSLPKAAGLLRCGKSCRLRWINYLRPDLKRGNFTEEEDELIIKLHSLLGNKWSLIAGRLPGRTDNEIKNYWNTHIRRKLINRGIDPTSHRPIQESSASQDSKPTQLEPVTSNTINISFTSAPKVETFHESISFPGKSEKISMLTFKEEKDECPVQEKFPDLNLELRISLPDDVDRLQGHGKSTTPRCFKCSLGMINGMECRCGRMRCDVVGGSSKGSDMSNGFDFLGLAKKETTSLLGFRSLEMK
Experiment: EMSA; LightShift Chemiluminescent EMSA Kit (Thermo), manufacturer's protocol; buffer, salt, pH and temperature not stated
Conditions: protein: recombinant; tags: MBP; label: 3' biotin on sense strand; blunt

Binding result, binds:
B1
B2
B3
B4
